In PMC6894071:

How the values were obtained:
[1] = target: EGFP-tagged bovine cationic amino acid transporter 1 (CAT1)/solute carrier family 7 member 1 (SLC7A1) (bovine) (UniProt F1N5P6); assay: flow cytometry on cells
[2] = target: Feline CAT1/SLC7A1, endogenous in CC81-GREMG cells (feline (endogenous in CC81-GREMG)); assay: flow cytometry on cells

## Bovine leukemia virus envelope glycoprotein (Env) on BLV particles (from UniProt P03380 34-301; P03380 302-515) (complex)
[1]
  percent APC-EGFP double-positive cells at 1 h: 18.7%
  percent APC-EGFP double-positive cells at 2 h: 23.7%
[2]
  percent of cells bound with BLV particles (with control serum 1:10): 57%
  percent of cells bound with BLV particles (with control serum 1:50): 49%
